The record followed here is patent US20230348578A1, “CONFORMATION-SPECIFIC ANTIBODIES THAT BIND TAU PROTEIN AND USES THEREOF” (Beth Israel Deaconess Medical Center, Inc., priority 2020, published 2023).

Positions count from the first letter of the chain named.

The target of one test is cis P-tau (Homo sapiens, UniProt P10636). The test is described as follows: Elimination of cis P-tau in cultured neurons stressed by hypoxia. The class given is cell-based. On the set-up: endogenous in cells. As to conditions: 2.5 μg/ml, 5 μg/ml and 10 μg/ml. The procedure:
(§1) The binding affinity of selected humanized antibody clones was determined by Biacore assay using a wild-type P-tau peptide and its pure cis or cis-locked, and pure trans counterparts. The […] of the selected humanized cis mAb variants was determined by assessing their ability to eliminate cis P-tau in stressed neurons in cell cultures. Functional restoration of selected clones was determined by their ability to restore risk-taking behavior after 3-hit or 7-hit repetitive TBI in mice, as assayed by elevated plus maze.
Cultured neurons were subjected to neuron stress by hypoxia in the presence or absence of different concentration of humanized antibody variants, followed by immunoblotting analysis to analyze cis P-tau levels in the stressed neurons, the results of which are provided in FIGS. 2-4. FIG. 2 is an immunostaining image showing the ability of humanized cis pT231-tau monoclonal antibody variants to eliminate cis P-tau in neurons under hypoxic conditions. Cis P-tau levels are reported in red and blue reports nuclear staining (Hoechst) to represent all neurons in the experiment. […] Cis P-tau levels are reported in red and blue reports nuclear staining (Hoechst) to represent all neurons in the experiment. […] IgG is a negative control. The cis-pTau monoclonal antibody C113 serves as a positive control.

The target in test [1] is cis pT231-tau (P-tau peptide, pure cis or cis-locked). The test is described as follows: Biacore assay of binding affinity of humanized cis mAb variants.
Description: We next started to characterize and select lead humanized mAbs. We expressed and purified humanized mAb variants using a CHO expression system. We transfected over 45 plasmid DNA pairs of heavy and light chain cDNAs into CHO cells to express over 225 humanized cis mAb variants in various combinations. To evaluate the target binding specificity and affinity of our mouse mAbs, we established a simple and quantitative ELISA to screen the clones using a wild-type P-tau peptide and its pure cis or cis-locked, and pure trans counterparts and determined the binding affinity for selected clones using Biacore assays. We screened over 200 humanized cis mAb variants. […] Furthermore, one-tenth of humanized cis mAb variants were also able to recognize cis P-tau in human AD and TBI brains based on immunostaining analysis.
as §1
A general note: In SPR one partner is held on a chip, and binding of the other changes the refractive index at the surface.

Test [2] relates to mice (C57/BL6) after 3-hit repetitive TBI. The test is described as follows: 3-hit repetitive mild TBI in mice, elevated plus maze. As to conditions: risk-taking behavior, HT13 chimera control = 1.0. The class given is in vivo. The protocol: as §1
An initial sign of brain dysfunction following traumatic brain injury (TBI) is an increase in risk-taking behavior. To determine the therapeutic effect of the herein described cis pT231-tau monoclonal antibodies in restoring brain function 11-week old mice (C57/BL6) mice were subjected to elevated plus maze behavioral assays designed to evaluate risk-taking behavior following repetitive mild TBIs. The behavioral assays were performed as previously described in Walf, Nature Protocols 2(2): 322-328, 2007 (FIG. 7). […] All other mice sustained mild TBI (rmTB) either three times, once a day for three consecutive days, or seven times once a day for five consecutive days and two consecutive times on days 8 and 9. In the 3-hit TBI experiment (FIG. 8A), nine groups of mice received three doses (250 ug/mouse) via intraperitoneal injection of either IgG control (n=10 mice) or one of the following humanized cis pT231-tau monoclonal antibody variants C113 (n=5 mice), HT1 (n=10 mice), HT2 (n=10), HT3 (n=10), HT8 (n=5), HT10 (n=10), HT13 (n=15), HT18 (n=4). Treatment with IgG or humanized cis-pT231-tau monoclonal antibody was administered on Days 1, 2 and 7. Behavioral evaluation was performed on Day 13. In the 7-hit TBI experiment (FIG. 8B), one group sustained TBI only (n=10 mice). The other groups received 8 doses (250 ug/mouse) via intraperitoneal injection of either IgG control (n=10 mice) or one of the following humanized cis pT231-tau monoclonal antibody variants C113 (n=10 mice), HT2 (n=10), HT3 (n=10), HT8 (n=10), HT10 (n=10), HT13 (n=10), HT18/HC2 (n=10). Treatment with IgG or humanized cis-pT231-tau monoclonal antibody was administered on Days 1, 2, 3, 5, 8, 10, 13 and 20. Behavioral evaluation was performed on Day 27. The elevated plus maze was used to assess anxiety/risk-taking behavior and carried out as described in Kondo et al, Nature 523, 431-436, 2015. Briefly, the elevated plus maze consists of two white open arms (30×5 cm) and two white closed arms of the same size with 15-cm-high walls, extended out opposite from each other from a central platform (decision zone) to create a plus shape. The entire apparatus is raised 38 cm above the floor (Lafayette Instruments). Mice are placed on the center platform of the maze, facing a closed arm, and allowed to explore the apparatus for 5 min. The maze is cleaned between subjects with a weak ethanol solution and dried. A computer-assisted video tracking system (Noldus Ethovision) recorded the total time spent in the center platform (decision zone), and the two closed or ‘safe’ arms and the two open or ‘aversive’ arms. Mice with lower levels of anxiety/risk-taking behavior spend less time in the open arms.

cis P-tau, sequence (P10636 1-441 isoform P10636-8): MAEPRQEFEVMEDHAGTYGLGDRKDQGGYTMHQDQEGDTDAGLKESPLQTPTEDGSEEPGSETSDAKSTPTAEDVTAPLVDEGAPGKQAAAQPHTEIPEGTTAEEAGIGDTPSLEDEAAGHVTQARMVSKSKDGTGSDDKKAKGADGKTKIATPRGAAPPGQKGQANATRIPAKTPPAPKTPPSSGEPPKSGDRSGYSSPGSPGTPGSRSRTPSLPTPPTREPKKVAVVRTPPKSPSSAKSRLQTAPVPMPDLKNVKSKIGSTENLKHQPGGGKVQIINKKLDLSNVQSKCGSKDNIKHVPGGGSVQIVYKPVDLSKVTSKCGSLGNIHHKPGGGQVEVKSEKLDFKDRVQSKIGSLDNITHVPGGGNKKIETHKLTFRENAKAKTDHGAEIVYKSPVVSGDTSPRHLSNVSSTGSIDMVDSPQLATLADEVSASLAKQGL

B1: C113: previously described murine cis-pTau monoclonal antibody (U.S. Pat. No. 9,688,747); SEQ ID NO: 24 and 15; positive control (antibody, V domains shown)
VH: QVQLQQPGAELVKPGASVKMSCKASGYTFTSYWIHWVKQRPGQGLEWIGVIDPSDSYTRYNQKFKGKATLTVDTSSSTAYMQLSSLTSEDSAVYYCTTWEVDYWGQGTTLTVSS
VL: DVVMTQTPLSLPVSLGDQASISCRSSQSLVHSDGNTYLHWYLQKPGQSPKLLIYKVSNRFSGVPDRFSGSGSGTDFTLKISRLEAEDLGVYFCSQSTHVPWTFGGGTKLEIK
notes: previously described murine cis-pTau monoclonal antibody (U.S. Pat. No. 9,688,747); positive control
B1: the “elimination of cis P-tau in neurons under hypoxic conditions (images)” value (“elimination of cis P-tau in neurons” for short) with cis P-tau is on record as “elimination of cis P-tau”.

B2: HT15: humanized cis-pThr231-tau mAb; heavy chain variable domain SEQ ID NO: 26, light chain variable domain SEQ ID NO: 17 (antibody, V domains shown)
VH: QVQLVQSGAEVKKPGASVKMSCKASGYTFTSYWIHWVKQRPGQGLEWIGVIDPSDSYTRYNQKFKGRATLTVDTSASTAYMELSSLRSEDTAVYYCTTWEVDYWGQGTLVTVSS
VL: B1 VL with T7S, S14T, D17Q, Q18P, H39N, K50Q, L83V, L88V, L109V
As a reminder, the Kd is the concentration at which binding is half-saturated. As for B2, the Kd in test [1] was determined as 33.4 nM.

B3: HT12: humanized cis-pThr231-tau mAb; heavy chain variable domain SEQ ID NO: 28, light chain variable domain SEQ ID NO: 19 (antibody, V domains shown)
VH: B2 VH with M20V, K38R, A68V, L70I, V72R
VL: B1 VL with T7S, S14T, D17Q, Q18P, K50Q, L83V, L88V, F92Y, L109V
Consider B3, for which the dissociation constant Kd in test [1] stood at 3.55 nM.

B4: HT1: humanized cis-pThr231-tau mAb; heavy chain variable domain SEQ ID NO: 25, light chain variable domain SEQ ID NO: 16 (antibody, V domains shown)
VH: B2 VH with V11L, E82Q, R87T, T91S, L109T
VL: B1 VL with T7S, S14T, D17Q, Q18P, K50Q, L83V, L88V, L109V
On to B4, for which the “Functional restoration 3-hit TBI” value in test [2] came out at 1.5. Moreover, in the test with cis P-tau, the “elimination of cis P-tau in neurons” value is given as “elimination of cis P-tau”. Besides, the Kd in test [1] amounted to 1.83 nM.

B5: HT14: humanized cis-pThr231-tau mAb; heavy chain variable domain SEQ ID NO: 25, light chain variable domain SEQ ID NO: 17 (antibody, V domains shown)
VH: B2 VH with V11L, E82Q, R87T, T91S, L109T
VL: B1 VL with T7S, S14T, D17Q, Q18P, H39N, K50Q, L83V, L88V, L109V
B5: the Kd in test [1] worked out at 30.2 nM.

B6: HT5: humanized cis-pThr231-tau mAb; heavy chain variable domain SEQ ID NO: 25, light chain variable domain SEQ ID NO: 18 (antibody, V domains shown)
VH: B2 VH with V11L, E82Q, R87T, T91S, L109T
VL: B1 VL with T7S, S14T, D17Q, Q18P, K50Q, F60D, L83V, L88V, L109V
B6: in test [1], the Kd was found to be 6.91 nM.

B7: HT16: humanized cis-pThr231-tau mAb; heavy chain variable domain SEQ ID NO: 27, light chain variable domain SEQ ID NO: 17 (antibody, V domains shown)
VH: B2 VH with M20V, K38R, A68V
VL: B1 VL with T7S, S14T, D17Q, Q18P, H39N, K50Q, L83V, L88V, L109V
Take B7: the Kd in test [1] stood at 3.26 nM.

B8: HT9: humanized cis-pThr231-tau mAb; heavy chain variable domain SEQ ID NO: 25, light chain variable domain SEQ ID NO: 19 (antibody, V domains shown)
VH: B2 VH with V11L, E82Q, R87T, T91S, L109T
VL: B1 VL with T7S, S14T, D17Q, Q18P, K50Q, L83V, L88V, F92Y, L109V
B8: the Kd in test [1] was found to be 1.89 nM.

B9: HT11: humanized cis-pThr231-tau mAb; heavy chain variable domain SEQ ID NO: 27, light chain variable domain SEQ ID NO: 19 (antibody, V domains shown)
VH: B2 VH with M20V, K38R, A68V
VL: B1 VL with T7S, S14T, D17Q, Q18P, K50Q, L83V, L88V, F92Y, L109V
Regarding B9, the dissociation constant Kd in test [1] was 3.99 nM.

B10: HT17: humanized cis-pThr231-tau mAb; heavy chain variable domain SEQ ID NO: 28, light chain variable domain SEQ ID NO: 17 (antibody, V domains shown)
VH: B2 VH with M20V, K38R, A68V, L70I, V72R
VL: B1 VL with T7S, S14T, D17Q, Q18P, H39N, K50Q, L83V, L88V, L109V
On to B10, for which the Kd in test [1] turned out to be 4940 nM.

B11: HT7: humanized cis-pThr231-tau mAb; heavy chain variable domain SEQ ID NO: 27, light chain variable domain SEQ ID NO: 18 (antibody, V domains shown)
VH: B2 VH with M20V, K38R, A68V
VL: B1 VL with T7S, S14T, D17Q, Q18P, K50Q, F60D, L83V, L88V, L109V
As for B11, the Kd in test [1] came out at 10.8 nM.

B12: HT4: humanized cis-pThr231-tau mAb; heavy chain variable domain SEQ ID NO: 28, light chain variable domain SEQ ID NO: 16 (antibody, V domains shown)
VH: B2 VH with M20V, K38R, A68V, L70I, V72R
VL: B1 VL with T7S, S14T, D17Q, Q18P, K50Q, L83V, L88V, L109V
Take B12: in test [1], the Kd is 2.42 nM.

B13: HT6: humanized cis-pThr231-tau mAb; heavy chain variable domain SEQ ID NO: 26, light chain variable domain SEQ ID NO: 18 (antibody, V domains shown)
VH: B2 VH
VL: B1 VL with T7S, S14T, D17Q, Q18P, K50Q, F60D, L83V, L88V, L109V
Consider B13, for which the Kd in test [1] turned out to be 6.48 nM.

B14: HT13: mouse-human chimera control antibody; heavy chain variable domain SEQ ID NO: 24, light chain variable domain SEQ ID NO: 15 (antibody, V domains shown)
VH: B1 VH
VL: B1 VL
On to B14, for which, in the test with cis P-tau, the “elimination of cis P-tau in neurons” value was “elimination of cis P-tau”. Besides, the Kd in test [1] was determined as 1.26 nM.
